Test results taken from article doi:10.1101/2023.09.26.559624 (bioRxiv, 2023).

Experiments:
[1] = molecular target: T1, SASH1-SPIDER (396-564) S519N (human, UniProt O94885 396-564, S519N); test: NMR titration
T1 sequence (looked up): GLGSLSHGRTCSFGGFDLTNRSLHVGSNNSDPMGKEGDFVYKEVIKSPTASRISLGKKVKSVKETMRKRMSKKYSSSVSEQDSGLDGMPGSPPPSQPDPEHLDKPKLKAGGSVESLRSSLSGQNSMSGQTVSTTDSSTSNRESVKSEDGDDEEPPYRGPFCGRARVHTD

[2] = molecular target: T2, human non-variant SASH1-SPIDER (396-564) (human, UniProt O94885 396-564); test: MST
T2 sequence (looked up): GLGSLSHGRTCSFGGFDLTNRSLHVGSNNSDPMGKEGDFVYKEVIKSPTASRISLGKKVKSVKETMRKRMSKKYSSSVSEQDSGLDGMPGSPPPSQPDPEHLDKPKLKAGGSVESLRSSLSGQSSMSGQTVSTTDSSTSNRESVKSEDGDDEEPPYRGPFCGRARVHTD

B1: ARC4 domain of TNKS2 with flanking residues (488-649) (domain or fragment, UniProt Q9H2K2 488-649, looked up)
chain: GNSEADRQLLEAAKAGDVETVKKLCTVQSVNCRDIEGRQSTPLHFAAGYNRVSVVEYLLQHGADVHAKDKGGLVPLHNACSYGHYEVAELLVKHGAVVNVADLWKFTPLHEAAAKGKYEICKLLLQHGADPTKKNRDGNTPLDLVKDGDTDIQDLLRGDAAL
modifications: red fluorescent dye NT-647 Maleimide (in the MST experiment only)
B1 was tested, and the “fold attenuation of affinity against N.V.” value [1] was ~10 fold and the Kd [2] was 1700 ± 400 nM.
